Data taken from patent US20170349667A1.

Biological target: human c-Met on cells (MKN-45, A549, HPAF, BxPC3) (human) (UniProt P08581)
Experiment: cell-based or functional assay

human c-Met on cells (MKN-45, A549, HPAF, BxPC3) (human), sequence (P08581 25-1390): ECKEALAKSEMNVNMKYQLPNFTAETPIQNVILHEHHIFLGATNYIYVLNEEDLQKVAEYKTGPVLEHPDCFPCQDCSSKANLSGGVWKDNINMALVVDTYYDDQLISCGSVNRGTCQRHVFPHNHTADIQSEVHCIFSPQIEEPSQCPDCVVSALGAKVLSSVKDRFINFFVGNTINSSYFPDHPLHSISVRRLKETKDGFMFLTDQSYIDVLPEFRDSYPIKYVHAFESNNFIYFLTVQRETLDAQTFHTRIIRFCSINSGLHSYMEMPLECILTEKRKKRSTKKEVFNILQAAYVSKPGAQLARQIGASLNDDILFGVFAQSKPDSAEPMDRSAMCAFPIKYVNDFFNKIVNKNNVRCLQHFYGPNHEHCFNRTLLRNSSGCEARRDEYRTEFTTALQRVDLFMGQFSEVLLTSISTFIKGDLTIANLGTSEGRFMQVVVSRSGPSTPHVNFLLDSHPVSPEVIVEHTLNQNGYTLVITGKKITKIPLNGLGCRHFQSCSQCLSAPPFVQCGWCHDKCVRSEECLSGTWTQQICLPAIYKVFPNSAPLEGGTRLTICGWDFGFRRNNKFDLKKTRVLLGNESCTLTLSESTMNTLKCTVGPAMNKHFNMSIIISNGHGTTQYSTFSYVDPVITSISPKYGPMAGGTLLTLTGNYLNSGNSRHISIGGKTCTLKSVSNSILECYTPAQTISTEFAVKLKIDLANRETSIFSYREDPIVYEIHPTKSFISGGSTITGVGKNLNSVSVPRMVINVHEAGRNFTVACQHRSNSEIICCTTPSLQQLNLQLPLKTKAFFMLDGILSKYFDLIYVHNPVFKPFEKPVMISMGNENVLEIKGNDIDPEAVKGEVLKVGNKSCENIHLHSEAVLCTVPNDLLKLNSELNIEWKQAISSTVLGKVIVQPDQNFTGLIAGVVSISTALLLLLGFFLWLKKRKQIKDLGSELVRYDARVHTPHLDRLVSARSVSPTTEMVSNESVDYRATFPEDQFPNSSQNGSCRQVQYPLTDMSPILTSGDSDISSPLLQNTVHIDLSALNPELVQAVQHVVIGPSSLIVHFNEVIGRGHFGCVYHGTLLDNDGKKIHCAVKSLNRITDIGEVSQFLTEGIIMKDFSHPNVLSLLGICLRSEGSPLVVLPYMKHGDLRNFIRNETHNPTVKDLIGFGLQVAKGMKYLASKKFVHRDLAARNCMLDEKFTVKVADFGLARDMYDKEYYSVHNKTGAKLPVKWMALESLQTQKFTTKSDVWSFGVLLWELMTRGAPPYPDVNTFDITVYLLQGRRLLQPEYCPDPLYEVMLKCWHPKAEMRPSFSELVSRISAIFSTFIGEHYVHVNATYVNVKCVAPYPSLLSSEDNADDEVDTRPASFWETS

down-regulation of total c-Met on the surface of MKN-45 cells: 50 to 60%
Substance: murine 5D5 antibody
